Test results published in patent US20020137113A1.

B1: neurotrophin 5 (NT5) (ligand, UniProt P34130 81-210, looked up)
chain: GVSETAPASRRGELAVCDAVSGWVTDRRTAVDLRGREVEVLGEVPAAGGSPLRQYFFETRCKADNAEEGGPGAGGGGCRGVDRRHWVSECKAKQSYVRALTADAQGRVGWRWIRIDTACVCTLLSRTGRA
B2: neurotrophin 3 (NT3) (ligand, UniProt P20783 139-257, looked up)
chain: YAEHKSHRGEYSVCDSESLWVTDKSSAIDIRGHQVTVLGEIKTGNSPVKQYFYETRCKEARPVKNGCRGIDDKHWNSQCKTSQTYVRALTSENNKLVGWRWIRIDTSCVCALSRKIGRT

Assays:
[1] = target: gD.trkB.IgG (gD tagged trkB.IgG fusion protein) (Herpes simplex virus; human) (UniProt Q16620); assay: competitive displacement of iodinated NT5 from gD tagged trkB.IgG in 293 cell supernatant
[2] = target: gD.trkC.IgG (gD tagged trkC.IgG fusion protein) (Herpes simplex virus; human) (UniProt Q16288); assay: competitive displacement of iodinated NT3 from gD tagged trkC.IgG in 293 cell supernatant
[3] = target: trkC.IgG (untagged trk.IgG fusion of the trkC extracellular domain and IgG-1 Fc) (human) (UniProt Q16288); assay: competitive displacement of iodinated NT3 from trkC.IgG in 293 cell supernatant

Binder	IC50 [1]	IC50 [2]	IC50 [3]
B1	0.0121 nM		
B2		0.0302 nM	0.0311 nM
